# According to patent publication US5308529A, “System for enhancing release of acids from anhydride precursors using esterase catalysts” (Lever Brothers Company, Division of Conopco, Inc., priority 1992, dated 1994):
# B1: Lipolase: lipase from Humicola lanuginosa gene expressed in Aspergillus oryzae, commercially available from NOVO Industri A/S (protein, UniProt O59952 23-291, looked up)
# Lipase: EVSQDLFNQFNLFAQYSAAAYCGKNNDAPAGTNITCTGNACPEVEKADATFLYSFEDSGVGDVTGFLALDNTNKLIVLSFRGSRSIENWIGNLNFDLKEINDICSGCRGHDGFTSSWRSVADTLRQKVEDAVREHPDYRVVFTGHSLGGALATVAGADLRGNGYDIDVFSYGAPRVGNRAFAEFLTVQTGGTLYRITHTNDIVPRLPPREFGYSHSSPEYWIKSGTLVPVTRNDIVKIEGIDATGGNNQPNIPDIPAHLWYFGLIGTCL
# B2: Heat Killed Lipolase: control: heat killed lipolase, i.e. no esterase present (protein, UniProt O59952 23-291, looked up)
# Lipase: B1 Lipase
# modifications: heat-inactivated
# notes: control: heat killed lipolase, i.e. no esterase present
# B3: Humicola languinosa: lipase ex Humicola lanuginosa (listed under Lipases) (protein, UniProt O59952 23-291, looked up)
# Lipase: B1 Lipase
# B4: Genex 8397: protease; mutant of subtilisin BPN' with MET50→PHE, ASN76→ASP, GLY169→ALA, GLN206→CYS, ASN218→SER (protein, UniProt P00782 108-382, looked up, variant M50F N76D G169A Q206C N218S)
# Subtilisin BPN': AQSVPYGVSQIKAPALHSQGYTGSNVKVAVIDSGIDSSHPDLKVAGGASFVPSETNPFQDNNSHGTHVAGTVAALDNSIGVLGVAPSASLYAVKVLGADGSGQYSWIINGIEWAIANNMDVINMSLGGPSGSAALKAAVDKAVASGVVVVAAAGNEGTSGSSSTVGYPAKYPSVIAVGAVDSSNQRASFSSVGPELDVMAPGVSICSTLPGNKYGAYSGTSMASPHVAGAAALILSKHPNWTNTQVRSSLENTTTKLGDSFYYGKGLINVQAAAQ
# B5: Papain: enzyme listed under Proteases in Table 1 (protein, UniProt P00784 134-345, looked up)
# Papain: IPEYVDWRQKGAVTPVKNQGSCGSCWAFSAVVTIEGIIKIRTGNLNEYSEQELLDCDRRSYGCNGGYPWSALQLVAQYGIHYRNTYPYEGVQRYCRSREKGPYAAKTDGVRQVQPYNEGALLYSIANQPVSVVLEAAGKDFQLYRGGIFVGPCGNKVDHAVAAVGYGPNYILIKNSWGTGWGENGYIRIKRGTGNSYGVCGLYTSSFYPVKN
# Key:
# Type in all cases: biochemical
# [1] = Enzymatic hydrolysis of benzoic anhydride at pH 5.00 and 10.0 (HPLC); conditions: 0.5 mM benzoic anhydride, 50% acetonitrile/water, room temperature, background hydrolysis subtracted
# Protocol: A 50% acetronitrile/water system was used in the presence of 120 ppm water hardness solution (2:1 calcium:magnesium), 0.5 mM benzoic anhydride, and 25 ppm acenaphthylene internal standard. The following buffer systems were utilized:
# For pH 5.00: 10 mM sodium citrate, adjusted to pH 5.00 with 0.1 citric acid.
# For pH 10.0: 10 mM triethanolamine, adjusted to pH 10.0 with 0.1M hydrochloric acid.
# All reactions were run on a 10 mL scale at room temperature for a total of 5.00 min. The benzoic anhydride and internal standard were added from a stock solution which was 1.0M benzoic anhydride and […] acenaphthylene in 100% acetonitrile. A total of 5.0 μL of this stock was used (yielding a 1:2000 dilution) to make each reaction 0.5 mM benzoic anhydride and 25 ppm acenaphthylene. Benzoic acid produced was measured by HPLC (high pressure liquid chromatography) using the acenaphthylene internal standard as a reference.
# [2] = Rate of benzoic acid formation from benzoic anhydride by enzymes with esterase activity (HPLC); conditions: 50 μM benzoic anhydride, -10 deg. C., pH 7, 5 mins, 60% glycerol/water
# Protocol: Standard reaction conditions for the rate determinations in Table 1 are as follows: 60% glycerol/water (w/w), 120 ppm hardness (2:1 Ca:Mg), 10 mM Triethanolamine adjusted to pH 7 with HCl, and […] benzoic anhydride. All incubations were at -10 deg. centigrade for 5 mins. Benzoic acid produced was measured by HPLC via an internal standard (acenaphthylene).
# Various enzymes with esterase activity (lipases, esterases, proteases) were tested against benzoic anhydride to determine the rate of formation of acid. As a control, the effect on benzoic anhydride when no esterase was present (i.e., heat killed lipolase) was also measured.
# [3] = Enzymatic hydrolysis of phthalic anhydride; conditions: 5.0 mM phthalic anhydride; 60.77 EU/g enzyme; room temperature, 50% acetonitrile/water
# Protocol: The reaction was carried out at room temperature in a mixed solvent system (50% acetonitrile/water). The buffer and water hardness concentration were identical to that used for the benzoic anhydride systems.
molecule,measurement,setting,value
B1,Reaction over 5.00 min.,"[1]; pH 5.00, 50.0 EU/g. enzyme",33.30%
same,Reaction over 5.00 min.,"[1]; pH 10.0, 15.0 EU/g. enzyme",86.06%
B2,Rate (uMol Benzoic Acid prod./enzyme unit/min),"[2]; control, no unit assay printed",0 uMol Benzoic Acid prod./enzyme
B3,Rate (uMol Benzoic Acid prod./enzyme unit/min),[2]; enzyme unit = lipase unit,1.08 E-1 uMol Benzoic Acid prod./enzyme
B4,Rate (μmol BA/EU/min),[3],3.03 × 10^-3 μmol BA/EU/min
same,Reaction over 5.00 min.,"[1]; pH 5.00, 60.0 EU/g. enzyme",22.34%
same,Reaction over 5.00 min.,"[1]; pH 10.0, 3.04 EU/g. enzyme",63.23%
B5,Rate (uMol Benzoic Acid prod./enzyme unit/min),[2]; enzyme unit = esterase unit,6.2 E-3 uMol Benzoic Acid prod./enzyme
